Where “and” joins values, the source holds several entries; their conditions need not be identical. Equal entries are not always repeated.
B1: Lysozyme C, P61626 (parent)
chain: MKALIVLGLVLLSVTVQGKVFERCELARTLKRLGMDGYRGISLANWMCLAKWESGYNTRATNYNAGDRSTDYGIFQINSRYWCNDGKTPGAVNACHLSCSALLQDNIADAVACAKRVVRDPQGIRAWVAWRNRCQNRDVRQYVQGCGV

Variants of: B1
Conditions: Homo sapiens; pH 2.7; 49.2 °C; Thermal; DSC; glycine 0.05 M; reversible: yes; structure 1LZ1; whole UniProt chain shown

Variant	ddG of mutation (higher = less stable) [kcal/mol]	heat capacity change of unfolding [kcal/mol/K]
V143A	1.6	1.56
I124V	0.98	1.72
I41V	0.41	1.82
I74V	1.34	1.29
V139A	1.75	1.37
V20A	1.51	1.44
I77V	0.93	1.67
V128A	-0.07	1.51

Same assay, conditions: Homo sapiens; pH 2.7; Thermal; DSC; glycine 0.05 M; reversible: yes; structure 1LZ1; whole UniProt chain shown

Variant	Tm	change of melting temperature, mutant - wild type (higher = more stable)	heat capacity change of unfolding [kcal/mol/K]	unfolding enthalpy (calorimetric)	unfolding enthalpy (van 't Hoff) [kcal/mol]
V143A	42.2 °C	-7 °C	1.56	78 kcal/mol	–
I124V	44.5 °C and 43.6 °C	-4.7 °C and -5.6 °C	1.72	70.3 kcal/mol and 59.8 kcal/mol	66.7
I41V	47.6 °C	-1.6 °C	1.82	80.9 kcal/mol	–
I74V	42.9 °C	-6.3 °C	1.29	71.8 kcal/mol	–
V139A	39.9 °C	-9.3 °C	1.37	65.3 kcal/mol	–
V20A	41.3 °C	-7.9 °C	1.44	65.5 kcal/mol	–
I77V	44.8 °C	-4.4 °C	1.67	71.3 kcal/mol	–
V128A	49.5 °C	0.3 °C	1.51	80.9 kcal/mol	–

Same assay, conditions: Homo sapiens; pH 2.72; Thermal; DSC; glycine 0.05 M; reversible: yes; structure 1LZ1; whole UniProt chain shown

Variant	Tm [°C]	unfolding enthalpy (calorimetric) [kcal/mol]	unfolding enthalpy (van 't Hoff) [kcal/mol]
V143A	42.8	67.2	70.6
V139A	40.3	53.6	56.9

Same assay, conditions: Homo sapiens; pH 2.87; Thermal; DSC; glycine 0.05 M; reversible: yes; structure 1LZ1; whole UniProt chain shown

Variant	Tm [°C]	unfolding enthalpy (calorimetric) [kcal/mol]	unfolding enthalpy (van 't Hoff) [kcal/mol]
V143A	45.9	72.2	76.3
V128A	52.5	85.9	87.6

Same assay, conditions: Homo sapiens; pH 3.02; Thermal; DSC; glycine 0.05 M; reversible: yes; structure 1LZ1; whole UniProt chain shown

Variant	Tm [°C]	unfolding enthalpy (calorimetric) [kcal/mol]	unfolding enthalpy (van 't Hoff) [kcal/mol]
V143A	47.9	76.3	78
V20A	47.3	62	67.5

Same assay, conditions: Homo sapiens; pH 3.17; Thermal; DSC; glycine 0.05 M; reversible: yes; structure 1LZ1; whole UniProt chain shown

Variant	Tm [°C]	unfolding enthalpy (calorimetric) [kcal/mol]	unfolding enthalpy (van 't Hoff) [kcal/mol]
V143A	50.8	81.1	82.8

Same assay, conditions: Homo sapiens; pH 3; Thermal; DSC; glycine 0.05 M; reversible: yes; structure 1LZ1; whole UniProt chain shown

Variant	Tm [°C]	unfolding enthalpy (calorimetric) [kcal/mol]	unfolding enthalpy (van 't Hoff) [kcal/mol]
I124V	49.5	70.6	75.6
I74V	48.2	69.4	73
V139A	47	61.5	67.5
I77V	50.3	74.2	76.1
V128A	55	89	93.1

Same assay, conditions: Homo sapiens; pH 3.1; Thermal; DSC; glycine 0.05 M; reversible: yes; structure 1LZ1; whole UniProt chain shown

Variant	Tm [°C]	unfolding enthalpy (calorimetric) [kcal/mol]	unfolding enthalpy (van 't Hoff) [kcal/mol]
I124V	51.3	73.7	78
I74V	50.5	74.4	78.2
V20A	48.3	65.1	70.6
I77V	52	75.4	78.7

Same assay, conditions: Homo sapiens; pH 2.66; Thermal; DSC; glycine 0.05 M; reversible: yes; structure 1LZ1; whole UniProt chain shown

Variant	Tm [°C]	unfolding enthalpy (calorimetric) [kcal/mol]	unfolding enthalpy (van 't Hoff) [kcal/mol]
I41V	46.7	76.3	80.4

Same assay, conditions: Homo sapiens; pH 2.78; Thermal; DSC; glycine 0.05 M; reversible: yes; structure 1LZ1; whole UniProt chain shown

Variant	Tm [°C]	unfolding enthalpy (calorimetric) [kcal/mol]	unfolding enthalpy (van 't Hoff) [kcal/mol]
I41V	49.6	83.5	85.9

Same assay, conditions: Homo sapiens; pH 2.96; Thermal; DSC; glycine 0.05 M; reversible: yes; structure 1LZ1; whole UniProt chain shown

Variant	Tm [°C]	unfolding enthalpy (calorimetric) [kcal/mol]	unfolding enthalpy (van 't Hoff) [kcal/mol]
I41V	52.3	85.4	89.2

Same assay, conditions: Homo sapiens; pH 3.09; Thermal; DSC; glycine 0.05 M; reversible: yes; structure 1LZ1; whole UniProt chain shown

Variant	Tm [°C]	unfolding enthalpy (calorimetric) [kcal/mol]	unfolding enthalpy (van 't Hoff) [kcal/mol]
I41V	55	91.1	95

Same assay, conditions: Homo sapiens; pH 2.8; Thermal; DSC; glycine 0.05 M; reversible: yes; structure 1LZ1; whole UniProt chain shown

Variant	Tm [°C]	unfolding enthalpy (calorimetric) [kcal/mol]	unfolding enthalpy (van 't Hoff) [kcal/mol]
I74V	45.3	66.7	71.1

Same assay, conditions: Homo sapiens; pH 2.86; Thermal; DSC; glycine 0.05 M; reversible: yes; structure 1LZ1; whole UniProt chain shown

Variant	Tm [°C]	unfolding enthalpy (calorimetric) [kcal/mol]	unfolding enthalpy (van 't Hoff) [kcal/mol]
V139A	43.6	57.9	62.7

Same assay, conditions: Homo sapiens; pH 3.14; Thermal; DSC; glycine 0.05 M; reversible: yes; structure 1LZ1; whole UniProt chain shown

Variant	Tm [°C]	change of melting temperature, mutant - wild type (higher = more stable) [°C]	unfolding enthalpy (calorimetric) [kcal/mol]	unfolding enthalpy (van 't Hoff) [kcal/mol]
V139A	50.1	-7.7	67.2	72.5

Same assay, conditions: Homo sapiens; pH 2.71; Thermal; DSC; glycine 0.05 M; reversible: yes; structure 1LZ1; whole UniProt chain shown

Variant	Tm [°C]	unfolding enthalpy (calorimetric) [kcal/mol]	unfolding enthalpy (van 't Hoff) [kcal/mol]
V20A	41.4	54.5	60.3

Same assay, conditions: Homo sapiens; pH 2.68; Thermal; DSC; glycine 0.05 M; reversible: yes; structure 1LZ1; whole UniProt chain shown

Variant	Tm [°C]	unfolding enthalpy (calorimetric) [kcal/mol]	unfolding enthalpy (van 't Hoff) [kcal/mol]
I77V	44.3	62.9	67

Same assay, conditions: Homo sapiens; pH 2.81; Thermal; DSC; glycine 0.05 M; reversible: yes; structure 1LZ1; whole UniProt chain shown

Variant	Tm [°C]	change of melting temperature, mutant - wild type (higher = more stable) [°C]	unfolding enthalpy (calorimetric) [kcal/mol]	unfolding enthalpy (van 't Hoff) [kcal/mol]
I77V	46.9	-5.1	67.5	71.1

Same assay, conditions: Homo sapiens; pH 2.55; Thermal; DSC; glycine 0.05 M; reversible: yes; structure 1LZ1; whole UniProt chain shown

Variant	Tm [°C]	unfolding enthalpy (calorimetric) [kcal/mol]	unfolding enthalpy (van 't Hoff) [kcal/mol]
V128A	46.8	76.8	78

Same assay, conditions: Homo sapiens; pH 3.13; Thermal; DSC; glycine 0.05 M; reversible: yes; structure 1LZ1; whole UniProt chain shown

Variant	Tm [°C]	unfolding enthalpy (calorimetric) [kcal/mol]	unfolding enthalpy (van 't Hoff) [kcal/mol]
V128A	57.2	93.3	93.3
